According to US20210253718A1, “FRIZZLED5 PROTEIN-BINDING AGENTS” (Modmab Therapeutics Corporation, priority 2016, published 2021):
Positions count from the first letter of the chain named. Each block holds one molecule with its values, some of them ahead of it.

Tests used:
Test in all cases: Immunofluorescence of anti-FZD5 Fab binding to CHO cells overexpressing Frizzled CRD
Design in all cases: key: −: no binding; +: very weak binder; ++: weak binder; +++: good binder; ++++: very good binder
FZD1 CRD = biological target: T1, FZD1 CRD (Homo sapiens, UniProt Q9UP38)
T1 construct: D112-P238; GPI anchor signal (C); expressed in transfected cells; host or cells: CHO cells, lentiviral pLenti-puro
Procedure: (§1) Plasmids: pLCKO lentiviral vector used for knockout (TKO) library construction and expression of individual gRNAs was constructed as described previously (Hart et al., 2015). Briefly, single guide RNA (sgRNA) scaffold was amplified from px330 (Addgene 42230) and cloned into pLKO.TRC005 lentiviral vector (Broad Institute, Cambridge, Mass.) using AgeI/EcoRI restriction sites. BfuAI sites were added at the 5′ end of the sgRNA scaffold for cloning the TKO library or individual gRNA target sequences. Lenti Cas9-2A-BsdR vector used to generate Cas9 stable expression cell lines was constructed as described previously (Hart et al., 2015). Briefly, lentiCRISPR pXPR_001 (Addgene 49535) was modified through removal of the sgRNA scaffold region through NdeI/EcoRI digest and blunt ends generation using Large Klenow Fragment (NEB). 2A-puro was replaced with 2A-BsdR by PCR using the NheI/MluI sites. Each of the 10 human Frizzled cysteine rich domains (CRDs) were cloned into the lentiviral expression plasmid pLenti-puro in the following cassette: FZD_CRD-MYC-GPI.
(§2) To confirm that the FZD5-WNT7B circuit is not driven simply by expression and rule out the possibility of a disconnect between RNA and protein levels for the Wnt receptors in HPAF-II cells, a panel of recombinant Fabs were generated, alternatively referred to herein as ‘Frizzled profiler’, that can detect and discriminate all but one of the ten Frizzled receptors. […] To characterize the binding specificity of these Fabs on cells, a panel of 10 CHO cell lines was generated, each expressing the CRD domain of a different myc-tagged Frizzled family member anchored at the plasma membrane through a GPI anchor (CHO-myc-FZDGPI). Despite the high sequence identity between Frizzled family members (FIG. 7A, FIG. 7B), selective Fabs were identified for FZD4, FZD5, FZD6 and FZD10 as assessed by immunofluorescence and flow cytometry (FIG. 7D and FIG. 8). […] The FZD8 CRD is most homologous to that of FZD5 (FIG. 7B). These Fabs can be used to discriminate expression of FZD1, FZD2, FZD4, FZD5, FZD6, FZD7, FZD8, FZD9 and FZD10 (FIG. 7D and FIG. 8). The ‘Frizzled profiler’ therefore consists of 10 different Fabs that can be used to discriminate expression of 9 different Frizzled family members. The Frizzled profiler was then used to confirm that HPAF-II cells express FZD1, FZD5, FZD6 and possibly FZD8 (FIG. 7E).
(§3) The binding of anti-FZD5 Fabs to cell surface-expressed Frizzled protein was further determined for each member of the Frizzled family via flow cytometry and immunofluorescence analysis of a panel of 10 CHO cell lines, each ectopically over-expressing the extracellular cysteine-rich domain (CRD) of a different Frizzled protein family member.

FZD10 CRD = biological target: T2, FZD10 CRD (Homo sapiens, UniProt Q9ULW2)
T2 construct: 30-156; GPI anchor signal (C); expressed in transfected cells; host or cells: CHO cells, lentiviral pLenti-puro
T2 sequence (Q9ULW2 30-156): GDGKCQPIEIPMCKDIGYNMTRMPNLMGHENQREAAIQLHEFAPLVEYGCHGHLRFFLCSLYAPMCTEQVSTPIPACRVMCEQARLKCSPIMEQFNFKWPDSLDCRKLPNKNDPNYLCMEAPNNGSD
Procedure: as §1, §2, §3

FZD2 CRD = biological target: T3, FZD2 CRD (Homo sapiens, UniProt Q14332)
T3 construct: D35-P161; GPI anchor signal (C); expressed in transfected cells; host or cells: CHO cells, lentiviral pLenti-puro
Procedure: as §1, §2, §3

FZD4 CRD = biological target: T4, FZD4 CRD (Homo sapiens, UniProt Q9ULV1)
T4 construct: E42-V167; GPI anchor signal (C); expressed in transfected cells; host or cells: CHO cells, lentiviral pLenti-puro
T4 sequence (Q9ULV1 42-167): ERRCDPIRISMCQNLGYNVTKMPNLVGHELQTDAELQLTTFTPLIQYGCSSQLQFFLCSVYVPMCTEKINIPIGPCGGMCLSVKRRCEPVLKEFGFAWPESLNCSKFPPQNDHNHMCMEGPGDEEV
Procedure: as §1, §2, §3

FZD5 CRD = biological target: T5, FZD5 CRD (Homo sapiens, UniProt Q13467)
T5 construct: K29-T156; GPI anchor signal (C); expressed in transfected cells; host or cells: CHO cells, lentiviral pLenti-puro
T5 sequence (Q13467 29-156): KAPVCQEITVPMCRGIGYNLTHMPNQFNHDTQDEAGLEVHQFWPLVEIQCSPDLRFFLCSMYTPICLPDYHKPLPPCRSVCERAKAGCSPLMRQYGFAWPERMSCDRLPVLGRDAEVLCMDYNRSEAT
Procedure: as §1, §2, §3

FZD6 CRD = biological target: T6, FZD6 CRD (Homo sapiens, UniProt O60353)
T6 construct: S20-P146; GPI anchor signal (C); expressed in transfected cells; host or cells: CHO cells, lentiviral pLenti-puro
T6 sequence (O60353 20-146): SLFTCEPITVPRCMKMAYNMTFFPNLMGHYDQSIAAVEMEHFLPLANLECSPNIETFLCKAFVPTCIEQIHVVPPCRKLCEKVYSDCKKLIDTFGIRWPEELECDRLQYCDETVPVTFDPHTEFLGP
Procedure: as §1, §2, §3

FZD9 CRD = biological target: T7, FZD9 CRD (Homo sapiens, UniProt O00144)
T7 construct: G35-A161; GPI anchor signal (C); expressed in transfected cells; host or cells: CHO cells, lentiviral pLenti-puro
T7 sequence (O00144 35-161): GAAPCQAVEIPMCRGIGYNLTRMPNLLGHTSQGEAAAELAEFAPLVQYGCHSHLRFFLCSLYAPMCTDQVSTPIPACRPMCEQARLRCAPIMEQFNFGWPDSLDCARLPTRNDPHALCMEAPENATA
Procedure: as §1, §2, §3

B1: Fab-2911: anti-FZD5 Fab with antibody variable region Fv-2911; CDR SEQ ID NOs: 35, 36, 50, 89, 126, 163 (antibody, V domains shown)
VH: EVQLVESGGGLVQPGGSLRLSCAASGFNIYYSSMHWVRQAPGKGLEWVAYIYPYSGYTSYADSVKGRFTISADTSKNTAYLQMNSLRAEDTAVYYCARYFWWYGFDYWGQGTLVTVSS
VL: DIQMTQSPSSLSASVGDRVTITCRASQSVSSAVAWYQQKPGKAPKLLIYSASSLYSGVPSRFSGSRSGTDFTLTISSLQPEDFATYYCQQGPWYPFTFGQGTKVEIK
Immunofluorescence binding, Frizzled CRD overexpressed on CHO cells: FZD1 (FZD1 CRD): ++
Immunofluorescence binding, Frizzled CRD overexpressed on CHO cells: FZD10 (FZD10 CRD): −
Immunofluorescence binding, Frizzled CRD overexpressed on CHO cells: FZD2 (FZD2 CRD): +++
Immunofluorescence binding, Frizzled CRD overexpressed on CHO cells: FZD4 (FZD4 CRD): −
Immunofluorescence binding, Frizzled CRD overexpressed on CHO cells: FZD5 (FZD5 CRD): ++
Immunofluorescence binding, Frizzled CRD overexpressed on CHO cells: FZD6 (FZD6 CRD): −
Immunofluorescence binding, Frizzled CRD overexpressed on CHO cells: FZD9 (FZD9 CRD): −

B2: Fab-2913: anti-FZD5 Fab with antibody variable region Fv-2913; CDR SEQ ID NOs: 35, 36, 52, 91, 128, 165 (antibody, V domains shown)
VH: EVQLVESGGGLVQPGGSLRLSCAASGFNISYSSIHWVRQAPGKGLEWVASIYPYSSSTSYADSVKGRFTISADTSKNTAYLQMNSLRAEDTAVYYCARYGYYGLDYWGQGTLVTVSS
VL: DIQMTQSPSSLSASVGDRVTITCRASQSVSSAVAWYQQKPGKAPKLLIYSASSLYSGVPSRFSGSRSGTDFTLTISSLQPEDFATYYCQQWGVSHYLFTFGQGTKVEIK
Immunofluorescence binding, Frizzled CRD overexpressed on CHO cells: FZD1 (FZD1 CRD): ++
Immunofluorescence binding, Frizzled CRD overexpressed on CHO cells: FZD10 (FZD10 CRD): −
Immunofluorescence binding, Frizzled CRD overexpressed on CHO cells: FZD2 (FZD2 CRD): +++
Immunofluorescence binding, Frizzled CRD overexpressed on CHO cells: FZD4 (FZD4 CRD): −
Immunofluorescence binding, Frizzled CRD overexpressed on CHO cells: FZD5 (FZD5 CRD): ++
Immunofluorescence binding, Frizzled CRD overexpressed on CHO cells: FZD6 (FZD6 CRD): −
Immunofluorescence binding, Frizzled CRD overexpressed on CHO cells: FZD9 (FZD9 CRD): −

B4: Fab-2912: anti-FZD5 Fab with antibody variable region Fv-2912; CDR SEQ ID NOs: 35, 36, 51, 90, 127, 164 (antibody, V domains shown)
VH: EVQLVESGGGLVQPGGSLRLSCAASGFNISYSYIHWVRQAPGKGLEWVASISSSSGYTSYADSVKGRFTISADTSKNTAYLQMNSLRAEDTAVYYCARTVRGSKKPYFSGWAMDYWGQGTLVTVSS
VL: DIQMTQSPSSLSASVGDRVTITCRASQSVSSAVAWYQQKPGKAPKLLIYSASSLYSGVPSRFSGSRSGTDFTLTISSLQPEDFATYYCQQFYFPYLITFGQGTKVEIK
Immunofluorescence binding, Frizzled CRD overexpressed on CHO cells: FZD1 (FZD1 CRD): +
Immunofluorescence binding, Frizzled CRD overexpressed on CHO cells: FZD10 (FZD10 CRD): −
Immunofluorescence binding, Frizzled CRD overexpressed on CHO cells: FZD2 (FZD2 CRD): +++
Immunofluorescence binding, Frizzled CRD overexpressed on CHO cells: FZD4 (FZD4 CRD): ++
Immunofluorescence binding, Frizzled CRD overexpressed on CHO cells: FZD5 (FZD5 CRD): +++
Immunofluorescence binding, Frizzled CRD overexpressed on CHO cells: FZD6 (FZD6 CRD): −
Immunofluorescence binding, Frizzled CRD overexpressed on CHO cells: FZD9 (FZD9 CRD): −

Second part, the molecule after the results:

Immunofluorescence binding, Frizzled CRD overexpressed on CHO cells: FZD1 (FZD1 CRD): ++++
Immunofluorescence binding, Frizzled CRD overexpressed on CHO cells: FZD10 (FZD10 CRD): −
Immunofluorescence binding, Frizzled CRD overexpressed on CHO cells: FZD2 (FZD2 CRD): ++++
Immunofluorescence binding, Frizzled CRD overexpressed on CHO cells: FZD4 (FZD4 CRD): −
Immunofluorescence binding, Frizzled CRD overexpressed on CHO cells: FZD5 (FZD5 CRD): ++++
Immunofluorescence binding, Frizzled CRD overexpressed on CHO cells: FZD6 (FZD6 CRD): −
Immunofluorescence binding, Frizzled CRD overexpressed on CHO cells: FZD9 (FZD9 CRD): −
B3: Fab-2916: anti-FZD5 Fab with antibody variable region Fv-2916; CDR SEQ ID NOs: 35, 36, 55, 94, 131, 167 (antibody, V domains shown)
VH: B2 VH with Y54S, S55Y, S57Y, S59Y, L104M
VL: B2 VL with G92Y, V93H, S94Y, H95P, F98I

Immunofluorescence binding, Frizzled CRD overexpressed on CHO cells: FZD1 (FZD1 CRD): ++
Immunofluorescence binding, Frizzled CRD overexpressed on CHO cells: FZD10 (FZD10 CRD): −
Immunofluorescence binding, Frizzled CRD overexpressed on CHO cells: FZD2 (FZD2 CRD): +++
Immunofluorescence binding, Frizzled CRD overexpressed on CHO cells: FZD4 (FZD4 CRD): −
Immunofluorescence binding, Frizzled CRD overexpressed on CHO cells: FZD5 (FZD5 CRD): +++
Immunofluorescence binding, Frizzled CRD overexpressed on CHO cells: FZD6 (FZD6 CRD): −
Immunofluorescence binding, Frizzled CRD overexpressed on CHO cells: FZD9 (FZD9 CRD): −
B5: Fab-2915: anti-FZD5 Fab with antibody variable region Fv-2915; CDR SEQ ID NOs: 35, 36, 54, 93, 130, 166 (antibody, V domains shown)
VH: EVQLVESGGGLVQPGGSLRLSCAASGFNIYYYSMHWVRQAPGKGLEWVASIYSSYGYTSYADSVKGRFTISADTSKNTAYLQMNSLRAEDTAVYYCARGYHYYPYYSGLDYWGQGTLVTVSS
VL: B4 VL with F91A, F93Y, P94H, Y95S

Immunofluorescence binding, Frizzled CRD overexpressed on CHO cells: FZD1 (FZD1 CRD): ++
Immunofluorescence binding, Frizzled CRD overexpressed on CHO cells: FZD10 (FZD10 CRD): −
Immunofluorescence binding, Frizzled CRD overexpressed on CHO cells: FZD2 (FZD2 CRD): +++
Immunofluorescence binding, Frizzled CRD overexpressed on CHO cells: FZD4 (FZD4 CRD): −
Immunofluorescence binding, Frizzled CRD overexpressed on CHO cells: FZD5 (FZD5 CRD): ++++
Immunofluorescence binding, Frizzled CRD overexpressed on CHO cells: FZD6 (FZD6 CRD): −
Immunofluorescence binding, Frizzled CRD overexpressed on CHO cells: FZD9 (FZD9 CRD): −
B6: Fab-2914: anti-FZD5 Fab with antibody variable region Fv-2914; CDR SEQ ID NOs: 35, 36, 53, 92, 129, 162 (antibody, V domains shown)
VH: EVQLVESGGGLVQPGGSLRLSCAASGFNIYYSYMHWVRQAPGKGLEWVASIYPSSSSTSYADSVKGRFTISADTSKNTAYLQMNSLRAEDTAVYYCARGAMDYWGQGTLVTVSS
VL: B4 VL with F91W, F93Y, P94G, Y95S
